This sample holds only a part of the variants without activity.
B1: TPR 5TU (parent)
chain: GGAUCUUCUCGAUCUAACAAAAAAGACAAAUCUGCCACAAAGCUUGAGAGCAUCUUCGGAUGCAGAGGCGGCAGCCUUCGGUGGCGCGAUAGCGCCAACGUUCUCAACUAUGACACGCAAAACGCGUGCUCCGUUGAAUGGAGUUUAUCAUG

Variants of: B1
Test: polymerase ribozyme fitness, log enrichment relative to wild type (log ratio); higher = more active; in vitro selection for triplet polymerase activity
Outline: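 A single round of triplicate in vitro selection, including frozen incubation at −7 °C, was applied to PCR-built, transcribed mutant libraries of each subunit of a heterodimeric triplet polymerase ribozyme. Illumina sequencing of input and output libraries retained genotypes with ≥10 input reads and ≥1 read per output. Fitness is the base-2 logarithm of genotype enrichment divided by wild-type enrichment, from inverse-variance-weighted replicate averages.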

Row | Variant | polymerase ribozyme fitness (log ratio)
1 | G46A A52G C85A | -2.54
2 | U45A A64C C93A | ≤ -4.2
3 | G46A U53A U77A G80A C85A A98U U102C C132G A138G | ≤ -4.2
4 | U45C G80C C85U C87G G92A U144G | ≤ -4.2
5 | U44G C54U C85G G117U A122U | ≤ -4.2
6 | U45G C57U G70C C76A A91G C93A | ≤ -4.2
7 | U44G G58C C87G | ≤ -4.2
8 | C43U C75A C79U G86U C87U G117U A150C | ≤ -4.2
9 | U44G G58U A98G U144A | ≤ -4.2
10 | U44A A91G U135C U144C | ≤ -4.2
11 | G46A G59C C76U C96U C116U | ≤ -4.2
12 | U44G U45G C72G | ≤ -4.2
13 | U44A G46C C75G U102A A120U U130G | -3.99
14 | U44A C85A G92A A107U G128U | ≤ -4.2
15 | U45G U55G A91C U101A A107G | ≤ -4.2
16 | U45G C93A C95U | -3.98
17 | U44A G88A A120U | ≤ -4.2
18 | U44A G88A A120G | ≤ -4.2
19 | U45A G126U | -3.51
20 | U45A G126A | -2.15
21 | U44A G62U G80C G140C | ≤ -4.2

Row | Variant | polymerase ribozyme fitness (log ratio)
22 | G46A A49C U101G | ≤ -4.2
23 | U45G A47C A142G | -3.91
24 | U45A G133A U134C | ≤ -4.2
25 | G46A U55G C79A C85G A97U | ≤ -4.2
26 | U45G G83A | -0.848
27 | U45A A52C G71A C99A G133U U145G | ≤ -4.2
28 | U45G C87U | -1.32
29 | C43U U55G A60U U109A U145C U146C | ≤ -4.2
30 | U44A C76A U82G G100A C103G A137G | ≤ -4.2
31 | G46C C72U G94A U102C A110G C125G A147C | ≤ -4.2
32 | U45A G46A U55C A66G U77G U82A C103G U135C U145C | ≤ -4.2
33 | U44A U82A | -4.18
34 | U45C A49C G70C G83C A137C U144C | ≤ -4.2
35 | G46A C87U A89C G94A A113C | ≤ -4.2
36 | U44G U61C | ≤ -4.2
37 | U44C G83C U148A | ≤ -4.2
38 | U44G A52C U77C G83A C99A C118A U145G | ≤ -4.2
39 | U44A U53A G86U C132U U135G | ≤ -4.2
40 | U44A C57G C69G G80C U82A C108A U109G G141C | ≤ -4.2
41 | U45A U102C C105U A119C G143A | ≤ -4.2
42 | U44A C76U G86U A121U | -3.86

Row | Variant | polymerase ribozyme fitness (log ratio)
43 | U45C U77G C79G | ≤ -4.2
44 | U45G C75U C103G C118G | ≤ -4.2
45 | G46A G68C G83C A147U | ≤ -4.2
46 | G46C C54U A66G G94A C95A G143A | ≤ -4.2
47 | U44A G58U G70C C76A A91G A115C | ≤ -4.2
48 | U45A G58C | -2.28
49 | U45A G58A | -1.48
50 | U44A U82G G84C C87G A113C C118U | ≤ -4.2
51 | U45G C54A U55A C85G G133U | ≤ -4.2
52 | U45G G152A | -1.18
53 | U45G A91C U101G A147C | ≤ -4.2
54 | U45A A47C U61A G92A C114A C123G U146G | ≤ -4.2
55 | U45G A47G C54U C93G | ≤ -4.2
56 | U45A U77G G83C U146A | ≤ -4.2
57 | C43U C103G | ≤ -4.2
58 | U44G U45G C72G U144C A147G | ≤ -4.2
59 | U44G G59C U78C G117U G143C | ≤ -4.2
60 | G46C C57A A66U A113C | ≤ -4.2
61 | U45G C114U | -2.91
62 | G46C C54U G94A C99A A142U U151C | ≤ -4.2
63 | G46A C85A G136U G140U A142G | ≤ -4.2

Row | Variant | polymerase ribozyme fitness (log ratio)
64 | U44A C75G C96U | -4.08
65 | U45G G59A | -0.523
66 | U45A A142G | -2.94
67 | U45A G84U C108G | ≤ -4.2
68 | U45A G92U | -2.75
69 | U45A G92C | -3.75
70 | U45G A66C C76A G86U C96U | ≤ -4.2
71 | U44A U53C G86A A147C | ≤ -4.2
72 | U44C G58A A64G C93G A119G | ≤ -4.2
73 | U44G C93U A137G U148C | ≤ -4.2
74 | U44C G59U G92A U135A | ≤ -4.2
75 | U45A U77A C87U U90G G92C G126A A138G | ≤ -4.2
76 | C43U C79A | -4.15
77 | U45G A115G | -1.98
78 | U45G G70A C87U U144G | ≤ -4.2
79 | U44G A91C G126A G143C | ≤ -4.2
80 | U45G C93A A113U C116U | ≤ -4.2
81 | U45G G59C C99A U151G | ≤ -4.2
82 | U44G G67U A91U A115U A120C | ≤ -4.2
83 | U44G G48U G86A G100C C105A G126A U134C | ≤ -4.2
84 | U45A U55G U56G C87U G92C | -3.98

Source: the RNAGym collection of RNA variant scans (doi:10.1073/pnas.2313332121)
